pKd: −log10 of the molar value.
What was measured:
StrepTactin = experiment: optical tweezers (single-molecule pulling); STN covalently coupled to polystyrene beads; tST-DNA-biotin held by its biotin on NTV-coated beads; tST-STN linkage formed in situ; stretched and relaxed at 50 nm/s to just beyond DNA overstretching at about 65 pN until the connection broke; connections that broke below 20 pN disregarded; N = 111
StrepTag II = conditions: cited from earlier work

Chain of Streptavidin (P22629 25-183): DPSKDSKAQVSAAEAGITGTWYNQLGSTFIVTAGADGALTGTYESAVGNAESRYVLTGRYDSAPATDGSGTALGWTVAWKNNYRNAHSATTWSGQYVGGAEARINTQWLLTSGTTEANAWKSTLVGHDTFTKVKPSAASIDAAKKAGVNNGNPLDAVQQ

Row | Substance | average rupture force (StrepTactin) [pN] | fraction of times the tether survives overstretching (first pull) (StrepTactin) [%] | fraction of times the tether survives overstretching (subsequent pulls) (StrepTactin) [%] | pKd (StrepTag II)
1 | tST-DNA-biotin (tandem of two StrepTag II peptides linked to 2553 bp dsDNA, biotinylated at the other DNA end) | > 65 | 77 | 87 | 
2 | Streptavidin (from UniProt P22629) |  |  |  | 4.14

Reference: paper PMC3545873
